The supplement of paper PMC7125110
± gives the standard error. For part of these data: This sample holds only a part of the variants without activity.

B1: glmS ribozyme (parent)
chain: AUAAAAGCGCCAGAACUACAGAAAUGUAGUUGACGAGGAGGAGGUUUAUCGAAUUUUCGGCGGAUGCCUCCAAA

Legend:
Settings in all cases: with glucosamine-6-phosphate
[1] = variants of: B1; experiment: kcat; higher = faster cleavage; RNA array
How it was run: (§1)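 Barcoded ribozyme variants, transcribed in situ by E. coli RNA polymerase on sequenced MiSeq chips, were followed via a hybridised Cy3 probe at 37 °C. Glucosamine-6-phosphate ranged from 40 μM to 10 mM in HEPES/KCl/Mg(OAc)2 buffer. kobs came from decay fits to per-tile medians, and kcat and KM from weighted Michaelis–Menten fits.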

[2] = variants of: B1; experiment: KM; higher = weaker cofactor use; RNA array
How it was run: as §1

[3] = variants of: B1; experiment: self-cleavage kobs at 40 uM GlcN6P; higher = faster cleavage; RNA array
How it was run: as §1

[4] = variants of: B1; experiment: self-cleavage kobs at 160 uM GlcN6P; higher = faster cleavage; RNA array
How it was run: as §1

[5] = variants of: B1; experiment: self-cleavage kobs at 640 uM GlcN6P; higher = faster cleavage; RNA array
How it was run: as §1

[6] = variants of: B1; experiment: self-cleavage kobs at 2500 uM GlcN6P; higher = faster cleavage; RNA array
How it was run: as §1

[7] = variants of: B1; experiment: self-cleavage kobs at 10000 uM GlcN6P; higher = faster cleavage; RNA array
How it was run: as §1

Variant | kcat [1] | KM [2] | self-cleavage kobs at 40 uM GlcN6P [3] | self-cleavage kobs at 160 uM GlcN6P [4] | self-cleavage kobs at 640 uM GlcN6P [5] | self-cleavage kobs at 2500 uM GlcN6P [6] | self-cleavage kobs at 10000 uM GlcN6P [7]
A15G G37U U54A U55A G60C C68G | 2.16e-05 ± 6.5e-06 s⁻¹ | – | – | – | – | – | –
A15G C16G | 0.00525 ± 0.001 s⁻¹ | 2660 ± 820 µM | 9.12e-05 ± 2.2e-05 s⁻¹ | 0.000213 ± 6.8e-05 s⁻¹ | 0.0011 ± 0.00023 s⁻¹ | 0.00326 ± 0.00063 s⁻¹ | 0.00391 ± 0.00059 s⁻¹
A15U A39G C71G | 0.000145 ± 6.1e-05 s⁻¹ | – | – | – | 0.000116 ± 3.5e-05 s⁻¹ | 9.89e-05 ± 3.7e-05 s⁻¹ | 0.000288 ± 0.0001 s⁻¹
A15C C67U | 0.00143 ± 0.00033 s⁻¹ | 881 ± 330 µM | 7.54e-05 ± 8.7e-06 s⁻¹ | 0.000198 ± 6.2e-05 s⁻¹ | 0.00045 ± 6.9e-05 s⁻¹ | 0.00177 ± 0.00038 s⁻¹ | 0.00139 ± 0.00015 s⁻¹
A15C G32U | 0.00121 ± 6.6e-05 s⁻¹ | 6690 ± 540 µM | – | – | 0.000107 ± 1.4e-05 s⁻¹ | 0.000321 ± 4.8e-05 s⁻¹ | 0.000731 ± 7.6e-05 s⁻¹
A15C G32C | 0.000182 ± 5.4e-06 s⁻¹ | 3300 ± 240 µM | – | – | 3.08e-05 ± 1e-05 s⁻¹ | 7.51e-05 ± 2e-05 s⁻¹ | 0.000138 ± 1.7e-05 s⁻¹
A15G A48C | 0.000466 ± 1.6e-05 s⁻¹ | 2830 ± 210 µM | – | 2.29e-05 ± 1.1e-05 s⁻¹ | 9.04e-05 ± 1.7e-05 s⁻¹ | 0.000212 ± 3.2e-05 s⁻¹ | 0.000365 ± 3.6e-05 s⁻¹
A15G A64C | 0.000162 ± 9.6e-06 s⁻¹ | 2040 ± 230 µM | – | – | 3.75e-05 ± 6.6e-06 s⁻¹ | 9.56e-05 ± 1.6e-05 s⁻¹ | 0.00013 ± 2.2e-05 s⁻¹
A15G G59U C67U | 5.74e-05 ± 6.3e-06 s⁻¹ | 2230 ± 1000 µM | – | – | – | – | 4.69e-05 ± 1.5e-05 s⁻¹
A15C U56A G63C C70A | 5.44e-05 ± 1.8e-05 s⁻¹ | – | – | 5.41e-05 ± 2.2e-05 s⁻¹ | – | 7.34e-05 ± 3.6e-05 s⁻¹ | –
A15G C61A | < 1e-05 s⁻¹ | – | – | – | – | – | –
A15G C61U | 1.94e-05 ± 1e-06 s⁻¹ | 631 ± 280 µM | – | – | – | – | –
A15C C68A | 2.89e-05 ± 1.1e-05 s⁻¹ | – | – | – | – | – | –
A15C G44U | 4.07e-05 ± 6.1e-06 s⁻¹ | – | < 1e-05 s⁻¹ | < 1e-05 s⁻¹ | – | – | –
A15C G44A | 2.81e-05 ± 1.7e-07 s⁻¹ | 3920 ± 72 µM | < 1e-05 s⁻¹ | < 1e-05 s⁻¹ | – | – | 2.02e-05 ± 9.6e-06 s⁻¹
A15U C16G C50G A52G | 1.88e-05 ± 5.2e-06 s⁻¹ | – | – | – | – | – | –
A15U C16U | 0.00176 ± 0.00028 s⁻¹ | 1750 ± 440 µM | 4.63e-05 ± 9.6e-06 s⁻¹ | 0.000152 ± 3.2e-05 s⁻¹ | 0.000423 ± 9.6e-05 s⁻¹ | 0.000885 ± 0.00016 s⁻¹ | 0.00172 ± 0.00026 s⁻¹
A15U A52U C68A | 2.12e-05 ± 5.2e-06 s⁻¹ | – | – | – | – | – | < 1e-05 s⁻¹
A15G G40C | 0.00522 ± 0.0011 s⁻¹ | 1800 ± 590 µM | 0.000151 ± 1.6e-05 s⁻¹ | 0.000354 ± 6.3e-05 s⁻¹ | 0.00122 ± 0.00017 s⁻¹ | 0.0027 ± 0.00028 s⁻¹ | 0.00506 ± 0.00049 s⁻¹
